Earlier results on 1 substance are cited in publication PMC2925223.

This data set has as its system His64. The experiment in a line: not stated. Particulars: His64 in the inward orientation in the crystal structures.

Take “Carbonic anhydrase II (HCA II) Y7F (Homo sapiens; Y7F)”: the pKa entry is recorded as “near 6.0”.
